Molecular target: synthetic peptides derived from the caveolin scaffolding domain (CSD)

B1: endothelial nitric oxide synthase (eNOS), endogenous, human umbilical vein endothelial cells (HUVECs) (protein)
chain: GNLKSVAQEPGPPCGLGLGLGLGLCGKQGPATPAPEPSRAPASLLPPAPEHSPPSSPLTQPPEGPKFPRVKNWEVGSITYDTLSAQAQQDGPCTPRRCLGSLVFPRKLQGRPSPGPPAPEQLLSQARDFINQYYSSIKRSGSQAHEQRLQEVEAEVAATGTYQLRESELVFGAKQAWRNAPRCVGRIQWGKLQVFDARDCRSAQEMFTYICNHIKYATNRGNLRSAITVFPQRCPGRGDFRIWNSQLVRYAGYRQQDGSVRGDPANVEITELCIQHGWTPGNGRFDVLPLLLQAPDDPPELFLLPPELVLEVPLEHPTLEWFAALGLRWYALPAVSNMLLEIGGLEFPAAPFSGWYMSTEIGTRNLCDPHRYNILEDVAVCMDLDTRTTSSLWKDKAAVEINVAVLHSYQLAKVTIVDHHAATASFMKHLENEQKARGGCPADWAWIVPPISGSLTPVFHQEMVNYFLSPAFRYQPDPWKGSAAKGTGITRKKTFKEVANAVKISASLMGTVMAKRVKATILYGSETGRAQSYAQQLGRLFRKAFDPRVLCMDEYDVVSLEHETLVLVVTSTFGNGDPPENGESFAAALMEMSGPYNSSPRPEQHKSYKIRFNSISCSDPLVSSWRRKRKESSNTDSAGALGTLRFCVFGLGSRAYPHFCAFARAVDTRLEELGGERLLQLGQGDELCGQEEAFRGWAQAAFQAACETFCVGEDAKAAARDIFSPKRSWKRQRYRLSAQAEGLQLLPGLIHVHRRKMFQATIRSVENLQSSKSTRATILVRLDTGGQEGLQYQPGDHIGVCPPNRPGLVEALLSRVEDPPAPTEPVAVEQLEKGSPGGPPPGWVRDPRLPPCTLRQALTFFLDITSPPSPQLLRLLSTLAEEPREQQELEALSQDPRRYEEWKWFRCPTLLEVLEQFPSVALPAPLLLTQLPLLQPRYYSVSSAPSTHPGEIHLTVAVLAYRTQDGLGPLHYGVCSTWLSQLKPGDPVPCFIRGAPSFRLPPDPSLPCILVGPGTGIAPFRGFWQERLHDIESKGLQPTPMTLVFGCRCSQLDHLYRDEVQNAQQRGVFGRVLTAFSREPDNPKTYVQDILRTELAAEVHRVLCLERGHMFVCGDVTMATNVLQTVQRILATEGDMELDEAGDVIGVLRDQQRYHEDIFGLTLRTQEVTSRIRTQSFSLQERQLRGAVPWAFDPPGSDTNSP
phosphorylation of eNOS (Ser1177) in atorvastatin-treated HUVECs, immunoblot: blocked the phosphorylation of eNOS

From patent US20040110684
